{"source": "paper PMC3266958", "about": "(Oncogene, 2011)", "binders": {"B1": {"name": "FBXL2 (ITC with CaM, data not shown) (natural protein)", "chain": "MVFSNNDEGLINKKLPKELLLRIFSFLDIVTLCRCAQISKAWNILALDGSNWQRIDLFNFQTDVEGRVVENISKRCGGFLRKLSLRGCIGVGDSSLKTFAQNCRNIEHLNLNGCTKITDSTCYSLSRFCSKLKHLDLTSCVSITNSSLKGISEGCRNLEYLNLSWCDQITKDGIEALVRGCRGLKALLLRGCTQLEDEALKHIQNYCHELVSLNLQSCSRITDEGVVQICRGCHRLQALCLSGCSNLTDASLTALGLNCPRLQILEAARCSHLTDAGFTLLARNCHELEKMDLEECILITDSTLIQLSIHCPKLQALSLSHCELITDDGILHLSNSTCGHERLRVLELDNCLLITDVALEHLENCRGLERLELYDCQQVTRAGIKRMRAQLPHVKVHAYFAPVTPPTAVAGSGQRLCRCCVIL"}}, "biological_target": "purified bovine calmodulin (bovine, UniProt P62157 1-149)", "experiment": "ITC"}
{"binder": "B1", "values": [{"measurement": "Kd", "value": 810, "unit": "nM"}]}
